Measurements from US20080299228A1, “TOPICAL COMPOSITIONS COMPRISING A MACROMOLECULE AND METHODS OF USING SAME” (priority 2007, published 2008).
No end group written: not given here. *: point of attachment. 125I = [125I]*

Key:
[1] = Effect of process parameters and excipients on rehydration time of lyophilized HEC gel; type: physicochemical; design: key: ✓: Additives that had a positive effect (i.e., reduction in hydration time) have a check mark beside them; conditions: additive screening
Description: Preliminary studies on rehydration time used water (see Table 13). Rehydration in 12% hexylene glycol, a humectant, decreased the rehydration time for a HEC 250HX lyophilized cake down to 20-30 minutes. Further experiments used 12% hexylene glycol for rehydration.
The freezing rate for lyophilized products can affect the cake structure. Freezing at −20° C. was the standard procedure used in this study. To investigate the effect of a faster freezing rate, samples were frozen in a dry ice/ethanol bath at −48° C.
Samples from both freezing methods were lyophilized. During the lyophilization process, all samples from the ice bath freezing collapsed into dense cakes. During rehydration, the ice bath frozen cakes were much slower to form gels. It took at least 1 hour to rehydrate the ice bath frozen cakes.
HEC 250HX gels at 1.125 and 2.25% polymer were prepared. The latter gel was more viscous than the former due to the higher polymer concentration. After freeze drying, cakes from both products were rehydrated so that the final polymer concentration was 1.125%. The lyophilized gels prepared with the more concentrated polymer solution required approximately 15-20 minutes longer to rehydrate than the more dilute formulation. The higher density of the concentrated polymer cake was likely a factor in the longer rehydration time.
Additives with a wide range of physical properties were screened to evaluate their effect on rehydration time for a lyophilized 1.125% HEC 250HX gel. The chemical classes included in this screen were polymers, surfactants, amino acids, colloidal powders, and salts. All additives were crystalline at room temperature. The use of amorphous excipients could lead to melting/cake collapse at elevated temperature. When evaluating chemical classes, priority was given to those included in the IIG for topicals. Excipients shown to be physically and/or chemically incompatible with PTH(1-34) were excluded (4). Salts containing polyvalent anions were also excluded to avoid the potential for precipitating PTH(1-34).
“Powdered” solid formulations were also evaluated. […]

[2] = Percutaneous absorption of 125I macromolecules, in vitro cadaver skin finite dose technique; type: in vitro ADME, human; conditions: for Total Absorption / Dermis / Epidermis / Stratum Corneum / Surface Wash: 48 hours
Source text: Radiolabeled Bovine Serum Albumin was acquired from American Radiolabeled Chemicals (St. Louis, Mo.) as ARI 0112 Albumin (bovine serum) [I^125] with a specific activity of 204 Ci/mmol (Lot number 080372). Radiolabeled Epidermal Growth Factor (murine) and Somatastatin were acquired from Perkin Elmer Life and Analytical Sciences (Boston, Mass.) as [^125I]-Epidermal Growth Factor (murine) and [^125I]Tyr11-Somatostatin 14 with specific activities of 2200 Ci/mmol (Lot number CC41180) and 2200 Ci/mmol (Lot number JX32880), respectively. Each stock isotope was either provided as, or reconstituted into 12.5 μL of distilled de-ionized water. This volume was added to 500 μL of the provided test formulations and mixed for uniformity. Replicate assessments were made from each final mixture to determine specific activity.
Skin Preparation. Percutaneous absorption was measured using the in vitro cadaver skin finite dose technique. Ex vivo human trunk skin without obvious signs of skin disease, obtained within 24-48 hours of death, was used in this study. Skin was dermatomed, prepared for cryopreservation, sealed in a water impermeable plastic bag, and stored at <−70° C. until the day of the experiment. Prior to use, it was thawed in ˜37° C. water, then rinsed in water to remove any adherent blood or other material from the surface.
Skin from a single donor was cut into multiple smaller sections large enough to fit on static 1.0 cm^2 Franz diffusion cells (see FIG. 6). The dermal chamber was filled to capacity with a reservoir solution of phosphate-buffered isotonic saline (PBS), pH 7.4±0.1, and the epidermal cell (chimney) left open to ambient laboratory conditions. All cells were mounted in a diffusion apparatus in which the dermal bathing solution was stirred magnetically at approximately 600 RPM and the skin surface temperature maintained at 32.0° C.±1.0° C.
To assure the integrity of each skin section, its permeability to tritiated water was determined before application of the test products. Following a brief (0.5-1 hour) equilibrium period, ^3H2O (NEN, Boston, Mass., sp. Act. ˜0.5 μCi/mL) was layered across the top of the skin by dropper so that the entire exposed surface was covered (approximately 250-500 μL). After 5 minutes the ^3H2O aqueous layer was removed. At 30 minutes the receptor solution was collected and analyzed for radioactive content by liquid scintillation counting. Skin specimens in which absorption of ^3H2O was less than 1.56 μL-equ/cm^2 were considered acceptable.
Dosing and Sample Collection. Just prior to dosing, the reservoir solution was replaced with a fresh solution of 1× PBS and a pre-dose sample taken for analysis. The chimney was removed from the Franz Cell to allow full access to the epidermal surface of the skin. All formulations were then applied to the skin sections using a positive displacement pipette set to deliver 5 μL formulation/cm^2. The dose was spread across the surface with the Teflon® tip of the pipette. Five to ten minutes after application, the chimney portion of the Franz Cell was replaced. At pre-selected times after dosing (1, 2, 4, 8, 12, 24, 32, and 48 hours) the reservoir solution was removed in its entirety, replaced with fresh reservoir solution, and a predetermined volume aliquot saved for subsequent analysis.
After the last sample was collected, the surfaces were washed twice (0.5 mL volume each) with 1× PBS to collect un-absorbed formulation from the surface of the skin. Following the wash, the skin was tape stripped a sufficient number of times to collect the stratum corneum. The skin was then removed from the chamber and split into epidermis and dermis. All skin sections were dissolved overnight in Soluene-350® (Perkin Elmer).
Analytical Methods. Analysis of all formulations was by liquid scintillation counting. One-milliliter volumes of each receptor solution and each surface wash received 5-6 mL scintillation fluid or as needed. […]

[3] = Rehydration time of lyophilized polymer gels; type: physicochemical; conditions: xanthan gum, carrageenan
Description: Lyophilized gels were prepared by slowing adding the polymer to water with stirring. For gels with methylcellulose or hydroxypropylcellulose, the polymer was added to hot water and the product was cooled with stirring. The gels took between 1-3 hours to reach maximum viscosity. All gels were allowed to stand for at least 12 hours before any additional processing. If PTH(1-34) was included in the formulation, the peptide was added to an aliquot of gel and gently stirred for 10 minutes.
Prior to lyophilization, gels were filled into Type I glass vials and frozen. Freezing was performed on a freezer shelf (−20° C.) or in a dry ice/ethanol bath (˜−48° C.). The lyophilizer (Ultra-dry Labtop, Freezedry Specialties, Inc) was equipped with a condenser (−50° C.) and an ultra high vacuum pump (DUO 2.5, Pfeiffer Vacuum, Inc) to provide optimal conditions for sublimating the frozen water. No heating or cooling was applied to the lyophilizer shelf. Vials containing lyophilized gels with PTH(1-34) were purged with nitrogen before stoppering (Teflon coated butyl rubber) and sealing (aluminum crimp seal).
A panel of lyophilized polymer gel was screened for the capacity to reform gels following rehydration. […]

[4] = type: physicochemical
Description: All excipients for the room temperature gel formulations met USP/NF monographs. Reagents for analysis were HPLC and/or ACS grade and nitrogen was ultra high purity (>99.999%). PTH(1-34) was supplied by Neo-MPS. Reverse phase HPLC RP-HPLC analysis of reconstituted gels/solutions was performed according to standard methods.
At each time point, two assays were performed on each formulation.
Before preparing larger batches for longer term stability studies, three pilot batches were prepared on the 10 g scale to assess the solid product's stability. The batches included either PTH(1-34) plus HEC, PTH(1-34) plus HEC in 1.0% mannitol and PTH(1-34) plus HEC in 1.0% lactose. The lyophilized gels were prepared according to the method of Example 8. Stability was assayed according to by HPLC.
The PTH(1-34) formulations that included HEC in 1.0% mannitol and HEC alone were prepared on a larger scale for use in a long-term stability analysis. In addition to these two lyophilized gel formulations, neat PTH(1-34), i.e., PTH powder, was also filled into vials (purged with nitrogen).
PTH was assayed by HPLC analysis of reconstituted gels/solutions. The samples were assayed before storage, stored at 40° C. and assayed at 1, 3, and 6 months after storage. At each time point, 2 assays were performed on each formulation. […]

[5] = 0.5 hr (midpoint), Mean ± SE, n = 3 Donors
[6] = 28.0 hr (midpoint), Mean ± SE, zeros below LLOQ
[7] = percent of applied dose, Mean ± SE

Row | Compound | effect of additive on hydration time of lyophilized 1.125% HEC 250 HX gel [1] | Mean Flux [2, 5] [ng/cm^2/hr] | Mean Flux ([2]; 1.5 hr (midpoint), Mean ± SE) [ng/cm^2/hr] | Mean Flux ([2]; 3.0 hr (midpoint), Mean ± SE) [ng/cm^2/hr] | Mean Flux ([2]; 6.0 hr (midpoint), Mean ± SE) [ng/cm^2/hr] | Mean Flux ([2]; 10.0 hr (midpoint), Mean ± SE) [ng/cm^2/hr] | Mean Flux ([2]; 18.0 hr (midpoint), Mean ± SE) [ng/cm^2/hr] | Mean Flux [2, 6] [ng/cm^2/hr] | Mean Flux ([2]; 40.0 hr (midpoint), Mean ± SE) [ng/cm^2/hr] | Total Absorption ([2]; single application, Mean ± SE) [µg] | Dermis ([2]; Mean ± SE) [µg] | Epidermis ([2]; Mean ± SE) [µg] | Stratum Corneum ([2]; Mean ± SE) [µg] | Surface Wash ([2]; Mean ± SE) [µg] | Dermis ([2]; percent of applied dose) [%] | Epidermis ([2]; percent of applied dose) [%] | Stratum Corneum ([2]; percent of applied dose) [%] | Surface Wash ([2]; percent of applied dose) [%] | Total Absorption [2, 7] [%] | further results
1 | CC(O)C(=O)[O-].[Na+] (stereo not drawn) [Sodium Lactate] | Sodium Lactate✓ |  |  |  |  |  |  |  |  |  |  |  |  |  |  |  |  |  |  | 
2 | [Cl-].[Na+] [Sodium Chloride] | Sodium Chloride✓ |  |  |  |  |  |  |  |  |  |  |  |  |  |  |  |  |  |  | 
3 | [Cl-].[K+] [Potassium Chloride] | Potassium Chloride✓ |  |  |  |  |  |  |  |  |  |  |  |  |  |  |  |  |  |  | 
4 | Somatostatin: [125I]Tyr11-Somatostatin 14 in HEC gel, 1.0 mg/mL (AGCKNFFWKTY(125I)TSC; ends and bridges not checked; UniProt P61278 103-116, looked up, variant F11Y) |  | 8.09 ± 3.68 | 2.14 ± 1.89 | 0.54 ± 1.89 | 0.22 ± 0.20 | 0.11 ± 0.05 | 0.02 ± 0.02 | 0.00 ± 0.00 | 0.01 ± 0.00 | 0.013 ± 0.007 | 0.118 ± 0.008 | 0.180 ± 0.010 | 0.190 ± 0.009 | 4.561 ± 0.118 | 2.410 ± 0.169 | 3.697 ± 0.200 | 3.886 ± 0.180 | 93.493 ± 2.412 | 0.234 ± 0.149 | 
5 | PTH(1-34): parathyroid hormone fragment 1-34, supplied by Neo-MPS |  |  |  |  |  |  |  |  |  |  |  |  |  |  |  |  |  |  |  | compatibility with anionic polymers [3]: not compatible with anionic polymers
6 | XF15//339006-2: Neat PTH(1-34) from Neo-MPS, lyophilized powder, vials purged with nitrogen |  |  |  |  |  |  |  |  |  |  |  |  |  |  |  |  |  |  |  | degradation (in words) [4]: significant degradation; reduction of PTH(1-34) assay ([4]; six months of storage at 40° C.): ~25%
7 | Epidermal Growth Factor: [125I]-Epidermal Growth Factor (murine) in HEC gel, 0.1 mg/mL |  | 0.40 ± 0.21 | 0.11 ± 0.08 | 0.07 ± 0.06 | 0.04 ± 0.02 | 0.09 ± 0.06 | 0.01 ± 0.01 | 0.00 ± 0.00 | 0.01 ± 0.00 | 0.001 ± 0.000 | 0.008 ± 0.002 | 0.013 ± 0.001 | 0.014 ± 0.001 | 0.479 ± 0.005 | 1.629 ± 10.311 | 2.646 ± 0.242 | 2.773 ± 0.131 | 98.145 ± 1.046 | 0.278 ± 0.095 | 
8 | Bovine Serum Albumin: [125I] bovine serum albumin in HEC gel, 1.0 mg/mL |  | 4.69 ± 3.93 | 1.04 ± 1.04 | 0.71 ± 0.43 | 0.26 ± 0.12 | 0.05 ± 0.05 | 0.04 ± 0.04 | 0.02 ± 0.02 | 0.06 ± 0.03 | 0.010 ± 0.007 | 0.079 ± 0.024 | 0.423 ± 0.060 | 0.616 ± 0.157 | 3.788 ± 0.357 | 1.607 ± 0.487 | 8.610 ± 1.230 | 12.552 ± 3.202 | 77.182 ± 7.273 | 0.205 ± 0.148 | 
